Two molecules from patent US20210147570A1 (Bristol-Myers Squibb, published 2021) can be followed below.

The target in assay [1] is T1, soluble CD73 in human serum/peripheral blood (human, UniProt P21589 27-549, limits assumed).
T1 construct: also called sCD73; free soluble CD73
T1 sequence (looked up): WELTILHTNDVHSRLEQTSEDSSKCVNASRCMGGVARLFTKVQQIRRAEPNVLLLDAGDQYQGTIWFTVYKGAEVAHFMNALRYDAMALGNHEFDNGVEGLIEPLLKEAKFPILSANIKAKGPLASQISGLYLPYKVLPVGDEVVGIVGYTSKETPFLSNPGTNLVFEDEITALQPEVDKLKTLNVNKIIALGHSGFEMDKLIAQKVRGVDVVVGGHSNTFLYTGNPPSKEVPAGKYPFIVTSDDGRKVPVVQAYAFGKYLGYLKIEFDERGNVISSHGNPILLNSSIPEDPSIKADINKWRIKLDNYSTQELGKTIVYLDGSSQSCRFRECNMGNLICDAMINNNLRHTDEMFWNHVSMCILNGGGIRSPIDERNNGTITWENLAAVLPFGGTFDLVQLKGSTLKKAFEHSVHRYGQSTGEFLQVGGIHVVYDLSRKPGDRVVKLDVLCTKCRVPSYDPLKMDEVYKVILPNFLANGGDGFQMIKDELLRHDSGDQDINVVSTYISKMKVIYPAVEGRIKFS
Description: MSD ECL sandwich immunoassay, 6E11 as capture. The method, then: (§1) The free sCD73 assay utilizes biotinylated anti-CD73 antibody 6E11 (SEQ ID NOs: 28 and 29) to capture drug-unbound sCD73 from the test samples (as it competes with CD73.A for binding to hCD73). MSD Streptavidin Gold assay plates were coated overnight at 2 to 8° C. with 50 μL/well of biotinylated 6E11 diluted to a final concentration of 0.5 μg/mL in 1× DPBS buffer. The following day, the wells were washed using PBS with 0.05% Tween 20 and 0.5× StabilCoat prepared in water was added to wells at 100 μL per well and incubated at room temperature for one hour. Wells were then aspirated and plates were dried and pouched with desiccant. Test samples drawn from study animals were kept frozen at −70° C. […] Bound sCD73 was subsequently detected using ruthenylated anti-CD73 antibody 4C3 (SEQ ID NOs: 38 and 39) (previously prepared with 0.1% Proclin 300 at working concentration) at a final concentration of 0.125 μg/ml in Starting Block (PBS) at 50 μL per well. The plates were incubated for one hour at 25° C. with shaking, at about 500 rpm, and then washed again before adding 1× MSD Read Buffer prepared in water and then read on MSD Sector Imager 600 by electrochemiluminescenece (ECL) technology. […] Test samples were quantified using a 4-parameter logistic fit regression model.

Assay [2] concerns the target T2, cynomolgus CD73 (in cell lines) (cynomolgus monkey, UniProt A0A2K5V5U7 27-549).
T2 construct: whole, on cells; also called Cyno CD73
T2 sequence: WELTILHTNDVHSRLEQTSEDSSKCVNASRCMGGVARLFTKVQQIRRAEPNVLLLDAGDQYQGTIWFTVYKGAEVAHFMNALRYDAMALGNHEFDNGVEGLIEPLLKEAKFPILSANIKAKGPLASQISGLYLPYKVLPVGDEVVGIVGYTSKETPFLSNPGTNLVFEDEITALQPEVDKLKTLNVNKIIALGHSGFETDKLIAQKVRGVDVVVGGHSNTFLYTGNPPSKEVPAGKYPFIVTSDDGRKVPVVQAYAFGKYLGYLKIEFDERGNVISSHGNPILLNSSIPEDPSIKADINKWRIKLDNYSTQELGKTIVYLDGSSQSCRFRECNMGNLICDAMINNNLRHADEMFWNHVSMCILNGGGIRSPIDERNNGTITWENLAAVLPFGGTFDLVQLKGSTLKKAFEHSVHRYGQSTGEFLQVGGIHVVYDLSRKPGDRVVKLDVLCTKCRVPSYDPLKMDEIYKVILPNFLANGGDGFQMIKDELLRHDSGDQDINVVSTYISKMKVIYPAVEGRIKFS
Briefly: CD73 binding in cell lines (cyno), median EC50; method not stated.

The target in assay [3] is T1, soluble CD73 in human serum/peripheral …. Briefly: free (not bound by CD73.A) sCD73 ECL immunoassay on patient samples. The method, then: as §1

B1: anti-CD73 antibody 6E11 (antibody, human IgG1, kappa, V domains shown)
VH: EVQLVESGGALVQPGRSLRLSCAASGFTFDDYAMHWVRQAPGKGLEWVSGITWNSGGIGYADSVKGRFTISRDNAKNSLYLQMNSLRAEDTALYYCAKDRYYSSWLLFDNWGQGILVTVSS
VL: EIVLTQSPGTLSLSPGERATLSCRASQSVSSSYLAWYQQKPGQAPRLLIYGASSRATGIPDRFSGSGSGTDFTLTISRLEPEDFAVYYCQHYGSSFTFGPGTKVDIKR
modifications: biotinylated (sites not given)
notes: Used as the biotinylated capture reagent on streptavidin plates; also called biotinylated 6E11
Consider B1, for which, in assay [1], the binding result is listed as “binds”.

B2: CD73.4-IgG2C219S.IgG1.1f (antibody, V domains shown)
VH: QVQLVESGGGVVQPGRSLRLSCAASGFTFSNYGMHWVRQAPGKGLEWVAVILYDGSNKYYPDSVKGRFTISRDNSKNTLYLQMNSLRAEDTAVYYCARGGSSWYPDSFDIWGQGTMVTVSS
VL: DIQMTQSPSSLSASVGDRVTITCRASQGISSWLAWYQQKPEKAPKSLIYAASSLQSGVPSRFSGSGSGTDFTLTISSLQPEDFATYYCQQYNSYPLTFGGGTKVEIKR
notes: IgG2 CH1/hinge (C219S) with IgG1.1f CH2/CH3 hybrid constant region; also called CD73.A; CD73.4-IgG2CS-IgG1.1f
Broadly, the EC50 is the concentration that produces a half-maximal response. A higher EC50 goes with weaker potency. Regarding B2, it took 0.3 nM to reach a half-maximal effect in assay [2] (EC50). Further, the binding result in assay [3] is listed as “binds”.
